We go through one substance from publication doi:10.1101/2023.10.23.563088.

The target in test [1] is gramicidin D (the natural mixture of linear gramicidins).
The target is the same in test [2]. This is another data set of the same source.

For “gramicidin D (the natural mixture of linear gramicidins) (peptide)”, the ANTS fluorescence quench rate by Tl+ entering DC22:1PC LUVs through gramicidin channels (GFA), rate relative to DMSO control, with ivermectin 1 to 10 μM (12-fold at 1 μM) in test [1] was 17 fold. For the same substance, in test [2], the ANTS fluorescence quench rate by Tl+ entering DC22:1PC LUVs through gramicidin channels (GFA), rate relative to control, with remdesivir 1 to 3 μM (no observable effect at 1 μM) came out at 2 fold.
